Results taken from paper PMC9033776, “Chromatin profiling in human neurons reveals aberrant roles for histone acetylation and BET family proteins in schizophrenia” (Nature Communications, 2022).
Where no end group is shown, it is not given here.

Target: T1, Bromo1-linker(GGS)5-Bromo2 of BRD4 (UniProt O60885 54-168; O60885 351-457)
T1 construct: BRD4 bromo1; (GGS)5 linker that replaces the stretch between the two bromodomains; BRD4 bromo2; the limits of the two domains in the fusion are not restated; also called Bromo1-linker-Bromo2 of BRD4; source: E. coli, purified using the same procedure as the single bromodomains
Test: ITC; 3 mM H2A.Z peptides titrated into 0.3 mM bromodomains; 25 °C; 20 mM Hepes-Na pH 7.5, 100 mM NaCl; One Set of Binding Sites model
Details: both partners purified

fold stronger binding than Bromo1 of BRD4: 6.49 fold | fold stronger binding than Bromo2 of BRD4: 1.7 fold
Binder: AGGK(Ac)AGK(Ac)DSGK(Ac)AKTKC (also: cross-linked via C-terminal cysteine) [H2A.ZK4ac7ac11ac peptides cross-linked by a C-terminal cysteine]
